Test results from patent US20240116985A1 (published 2024).
Starred links: 1 amine or outer side, 2 acyl side, 3 side chain; linkers in the order of their positions; H or OH if unused. Positions of bridges follow the written chain, without caps; N, C: chain ends. Non-standard residues stand in square brackets, D forms with d. Primed or numbered codes have the meaning given here. B5(16) = 2-amino-2-(pent-4-en-1-yl)hept-6-enoic acid = 2,2-bis(4-pentenyl)glycine (stitching residue), C=CCCCC(CCCC=C)(N[*:1])C(=O)[*:2]; B5(5) = 2,2-bis(4-pentenyl)glycine, 2-amino-2-(pent-4-en-1-yl)hept-6-enoic acid (stitching residue), C=CCCCC(CCCC=C)(N[*:1])C(=O)[*:2]; B5(9) = 2-amino-2-(pent-4-en-1-yl)hept-6-enoic acid (2,2-bis(4-pentenyl)glycine), C=CCCCC(CCCC=C)(N[*:1])C(=O)[*:2]; B5(19) = 2-amino-2-(pent-4-en-1-yl)hept-6-enoic acid (bis(4-pentenyl)glycine), C=CCCCC(CCCC=C)(N[*:1])C(=O)[*:2]; d(βAsp) = O=C(O)[C@@H](CC(=O)[*:2])N[*:1]; Bta = N[C@@H](Cc1csc2ccccc12)C(=O)O; αAllylPro = C=CC[C@@]1(C(=O)O)CCCN1; S8 = C=CCCCCCC[C@](C)(N)C(=O)O

T1: full-length beta-Catenin (Uniprot ID P35222) (Homo sapiens (Human), UniProt P35222 2-781)
T1 construct: 'mature' is the nearest allowed form; also called bCat; B-Catenin
T1 sequence: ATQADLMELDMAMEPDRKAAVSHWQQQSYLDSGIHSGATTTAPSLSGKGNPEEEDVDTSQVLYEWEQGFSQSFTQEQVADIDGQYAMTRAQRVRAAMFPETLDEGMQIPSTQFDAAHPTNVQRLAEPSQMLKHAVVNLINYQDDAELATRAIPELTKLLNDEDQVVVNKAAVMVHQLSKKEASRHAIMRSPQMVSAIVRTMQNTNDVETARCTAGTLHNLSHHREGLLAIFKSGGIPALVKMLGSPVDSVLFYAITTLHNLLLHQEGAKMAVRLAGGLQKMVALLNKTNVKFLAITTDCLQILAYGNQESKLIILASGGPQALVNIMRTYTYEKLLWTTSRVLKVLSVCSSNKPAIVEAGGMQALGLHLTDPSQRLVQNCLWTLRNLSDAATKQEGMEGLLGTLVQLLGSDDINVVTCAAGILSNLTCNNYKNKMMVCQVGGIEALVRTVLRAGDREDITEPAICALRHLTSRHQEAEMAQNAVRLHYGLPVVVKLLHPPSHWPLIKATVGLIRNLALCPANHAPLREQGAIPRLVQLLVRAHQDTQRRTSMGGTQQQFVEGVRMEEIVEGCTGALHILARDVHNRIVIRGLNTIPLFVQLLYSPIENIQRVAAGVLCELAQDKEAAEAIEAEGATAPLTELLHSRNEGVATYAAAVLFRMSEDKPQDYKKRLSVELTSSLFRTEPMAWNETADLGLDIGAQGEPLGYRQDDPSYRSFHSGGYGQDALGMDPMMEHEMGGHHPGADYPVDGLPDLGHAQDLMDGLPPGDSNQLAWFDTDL


molecular target: T1, full-length beta-Catenin (Uniprot ID …); assay: fluorescence polarization competition, full-length beta-catenin with 5FAM-TCF4(10-53) probe as competitor
Method: The plate was incubated protected from light for 60 minutes at 20° C. prior to read. Reads were performed on a CLARIOstar plate reader (BMG Labtech) in duplicate, and data were fitted to a 1:1 binding model with hill slope using an in-house script. All provided concentrations are final concentrations.

Binder	EC50 [nM]
Ac-[αAllylPro]DI[B5(9)]DEAAFQ[S8]F[Bta]V-NH2 (staple 1-4, 4-11, Stapled peptide composition; later-eluting HPLC peak (staple isomer)) [I-646]	461
XDIXDEALFQXFXQ (not fully specified; As printed: Ac-PL3-Asp-Ile-B5-Asp-Glu-Ala-Leu-Phe-Gln-S8-Phe-BztA-Gln-NH2; N-terminal Ac; PL3 at 1, B5 at 4, S8 at 11 (stapled 1-4 and 4-11); BztA at 13; C-terminal NH2, Stapled peptide composition; earlier-eluting HPLC peak (staple isomer)) [I-658]	546
Ac-[αAllylPro]DI[B5(9)]DELAFQ[S8]F[Bta]Q-NH2 (staple 1-4, 4-11, Stapled peptide composition; earlier-eluting HPLC peak (staple isomer)) [I-647]	445
Ac-[αAllylPro]DI[B5(9)]DEAWFQ[S8]F[Bta]Q-NH2 (staple 1-4, 4-11, Stapled peptide composition; later-eluting HPLC peak (staple isomer)) [I-665]	923
Ac-[αAllylPro]DI[B5(19)]DEAFFQ[S8]F[Bta]Q-NH2 (staple 1-4, 4-11, Stapled peptide composition) [I-660]	544
Ac-[αAllylPro]DI[B5(9)]DEAWFQ[S8]F[Bta]Q-NH2 (staple 1-4, 4-11, Stapled peptide composition; earlier-eluting HPLC peak (staple isomer)) [I-664]	996
Ac-[αAllylPro]DI[B5(5)][d(βAsp)]EAAFQ[S8]F[Bta]Q-NH2 (staple 1-4, 4-11, Stapled peptide composition) [I-674]	5000
Ac-[αAllylPro][d(βAsp)]I[B5(9)]DEAAFQ[S8]F[Bta]Q-NH2 (staple 1-4, 4-11, Stapled peptide composition; later-eluting HPLC peak (staple isomer)) [I-669]	451

Now those with a lower EC50, led by results:

EC50 [nM]	Binder
43	Ac-[αAllylPro]DI[B5(19)]DEAQFQ[S8]F[Bta]Q-NH2 (staple 1-4, 4-11, Stapled peptide composition) [I-663]
209	Ac-[αAllylPro]DI[B5(9)]DEFAFQ[S8]F[Bta]Q-NH2 (staple 1-4, 4-11, Stapled peptide composition; earlier-eluting HPLC peak (staple isomer)) [I-649]
395	Ac-[αAllylPro]DI[B5(9)]DEAAFQ[S8]F[Bta]V-NH2 (staple 1-4, 4-11, Stapled peptide composition) [I-645]
233	Ac-[αAllylPro]DI[B5(9)]DELAFQ[S8]F[Bta]Q-NH2 (staple 1-4, 4-11, Stapled peptide composition; later-eluting HPLC peak (staple isomer)) [I-648]
183	Ac-[αAllylPro]DI[B5(16)]DEWAFQ[S8]F[Bta]Q-NH2 (staple 1-4, 4-11, Stapled peptide composition) [I-655]
430	XDIXDEALFQXFXQ (not fully specified; As printed: Ac-PL3-Asp-Ile-B5-Asp-Glu-Ala-Leu-Phe-Gln-S8-Phe-BztA-Gln-NH2; N-terminal Ac; PL3 at 1, B5 at 4, S8 at 11 (stapled 1-4 and 4-11); BztA at 13; C-terminal NH2, Stapled peptide composition; later-eluting HPLC peak (staple isomer)) [I-659]
45	XDIXDEASFQXFXQ (not fully specified; As printed: Ac-PL3-Asp-Ile-B5-Asp-Glu-Ala-Ser-Phe-Gln-S8-Phe-BztA-Gln-NH2; N-terminal Ac; PL3 at 1, B5 at 4, S8 at 11 (stapled 1-4 and 4-11); BztA at 13; C-terminal NH2, Stapled peptide composition; earlier-eluting HPLC peak (staple isomer)) [I-661]
186	Ac-[αAllylPro]DI[B5(16)]DESAFQ[S8]F[Bta]Q-NH2 (staple 1-4, 4-11, Stapled peptide composition; earlier-eluting HPLC peak (staple isomer)) [I-651]
